Source: patent US20250084169A1 (published 2025)
Read-outs that look alike come from different tables or passages of the source.

T1: recombinant human Fc gamma RIIa (CD32a) 131H (human, UniProt P12318 36-218)
T1 sequence (looked up): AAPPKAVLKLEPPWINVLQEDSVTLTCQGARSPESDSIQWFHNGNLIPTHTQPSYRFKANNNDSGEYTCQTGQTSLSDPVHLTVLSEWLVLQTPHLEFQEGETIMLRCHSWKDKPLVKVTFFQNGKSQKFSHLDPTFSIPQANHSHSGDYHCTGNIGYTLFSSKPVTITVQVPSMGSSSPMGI

T2: recombinant human Fc gamma RIIa (CD32a) 131R (human, UniProt P12318 36-218)
T2 sequence (looked up): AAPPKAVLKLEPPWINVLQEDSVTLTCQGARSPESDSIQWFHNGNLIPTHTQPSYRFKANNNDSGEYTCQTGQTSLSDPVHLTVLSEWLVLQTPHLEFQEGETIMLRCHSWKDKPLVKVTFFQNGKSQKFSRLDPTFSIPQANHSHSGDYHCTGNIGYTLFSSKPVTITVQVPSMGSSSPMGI

T3: recombinant human Fc gamma RIIb/c (CD32b/c) (human, UniProt P31994 46-217)
T3 sequence (looked up): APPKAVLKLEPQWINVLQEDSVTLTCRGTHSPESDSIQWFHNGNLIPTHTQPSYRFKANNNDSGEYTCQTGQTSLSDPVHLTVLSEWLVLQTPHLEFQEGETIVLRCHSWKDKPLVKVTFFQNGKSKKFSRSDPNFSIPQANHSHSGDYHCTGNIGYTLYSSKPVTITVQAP

T4: recombinant human full-length CD20 (human, UniProt P11836 1-297)
T4 sequence (looked up): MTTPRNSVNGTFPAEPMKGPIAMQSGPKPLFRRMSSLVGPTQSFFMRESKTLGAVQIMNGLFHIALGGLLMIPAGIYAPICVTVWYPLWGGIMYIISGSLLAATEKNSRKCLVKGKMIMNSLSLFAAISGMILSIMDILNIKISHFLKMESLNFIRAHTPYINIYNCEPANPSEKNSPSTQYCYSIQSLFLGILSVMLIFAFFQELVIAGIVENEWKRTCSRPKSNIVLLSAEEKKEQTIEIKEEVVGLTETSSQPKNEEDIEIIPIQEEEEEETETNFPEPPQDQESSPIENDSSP

T5: recombinant cynomolgus monkey CD20 (cynomolgus monkey, UniProt M4ZHZ6 1-297)
T5 sequence: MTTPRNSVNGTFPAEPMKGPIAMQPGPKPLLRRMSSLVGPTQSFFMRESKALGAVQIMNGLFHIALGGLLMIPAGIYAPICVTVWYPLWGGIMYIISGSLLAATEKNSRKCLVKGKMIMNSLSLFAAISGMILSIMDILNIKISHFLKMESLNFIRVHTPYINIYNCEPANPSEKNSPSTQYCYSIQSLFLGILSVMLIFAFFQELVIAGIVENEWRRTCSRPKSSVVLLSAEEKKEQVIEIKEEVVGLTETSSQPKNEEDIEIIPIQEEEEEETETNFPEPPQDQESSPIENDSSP

T6: CD20 Lipoparticles (Homo sapiens (Human), UniProt P11836 1-297)
T6 sequence: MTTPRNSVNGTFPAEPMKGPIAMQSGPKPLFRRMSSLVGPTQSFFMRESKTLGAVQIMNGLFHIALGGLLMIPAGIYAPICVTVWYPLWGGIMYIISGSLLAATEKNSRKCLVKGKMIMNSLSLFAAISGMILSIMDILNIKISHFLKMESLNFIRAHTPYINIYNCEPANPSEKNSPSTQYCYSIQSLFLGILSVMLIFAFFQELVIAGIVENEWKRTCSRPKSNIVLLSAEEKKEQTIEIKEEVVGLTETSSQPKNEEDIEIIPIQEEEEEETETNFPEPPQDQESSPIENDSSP

T7: cynomolgus monkey CD20 on cells (cynomolgus monkey, UniProt M4ZHZ6 1-297)
T7 sequence: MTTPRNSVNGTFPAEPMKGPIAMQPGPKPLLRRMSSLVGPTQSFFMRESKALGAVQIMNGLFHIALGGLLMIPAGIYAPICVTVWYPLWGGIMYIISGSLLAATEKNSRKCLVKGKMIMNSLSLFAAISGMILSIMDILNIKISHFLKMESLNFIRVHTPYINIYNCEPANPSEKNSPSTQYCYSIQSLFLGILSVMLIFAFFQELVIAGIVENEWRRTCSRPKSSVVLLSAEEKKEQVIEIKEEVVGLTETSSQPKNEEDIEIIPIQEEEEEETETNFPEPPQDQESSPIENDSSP

T8: recombinant human CD19 (human, UniProt P15391 20-291)
T8 sequence (looked up): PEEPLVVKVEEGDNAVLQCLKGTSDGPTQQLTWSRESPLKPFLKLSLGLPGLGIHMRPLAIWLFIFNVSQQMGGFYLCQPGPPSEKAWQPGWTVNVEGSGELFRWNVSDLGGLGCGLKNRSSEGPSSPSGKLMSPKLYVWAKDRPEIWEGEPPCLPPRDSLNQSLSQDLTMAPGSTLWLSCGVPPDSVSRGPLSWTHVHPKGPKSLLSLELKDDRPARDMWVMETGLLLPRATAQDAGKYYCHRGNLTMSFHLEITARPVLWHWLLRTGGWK

T9: recombinant cynomolgus monkey CD19 (cynomolgus monkey, UniProt A0A2K5W8L9 20-292)
T9 sequence: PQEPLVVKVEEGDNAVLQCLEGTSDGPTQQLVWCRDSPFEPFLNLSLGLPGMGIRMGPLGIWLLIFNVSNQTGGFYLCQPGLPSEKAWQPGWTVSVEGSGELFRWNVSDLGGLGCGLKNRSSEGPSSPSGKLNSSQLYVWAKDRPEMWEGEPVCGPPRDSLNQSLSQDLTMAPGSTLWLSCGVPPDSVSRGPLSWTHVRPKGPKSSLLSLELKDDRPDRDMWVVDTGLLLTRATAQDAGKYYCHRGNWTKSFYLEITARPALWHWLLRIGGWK

T10: human CD19 on cells (human, UniProt P15391 20-556)
T10 sequence (looked up): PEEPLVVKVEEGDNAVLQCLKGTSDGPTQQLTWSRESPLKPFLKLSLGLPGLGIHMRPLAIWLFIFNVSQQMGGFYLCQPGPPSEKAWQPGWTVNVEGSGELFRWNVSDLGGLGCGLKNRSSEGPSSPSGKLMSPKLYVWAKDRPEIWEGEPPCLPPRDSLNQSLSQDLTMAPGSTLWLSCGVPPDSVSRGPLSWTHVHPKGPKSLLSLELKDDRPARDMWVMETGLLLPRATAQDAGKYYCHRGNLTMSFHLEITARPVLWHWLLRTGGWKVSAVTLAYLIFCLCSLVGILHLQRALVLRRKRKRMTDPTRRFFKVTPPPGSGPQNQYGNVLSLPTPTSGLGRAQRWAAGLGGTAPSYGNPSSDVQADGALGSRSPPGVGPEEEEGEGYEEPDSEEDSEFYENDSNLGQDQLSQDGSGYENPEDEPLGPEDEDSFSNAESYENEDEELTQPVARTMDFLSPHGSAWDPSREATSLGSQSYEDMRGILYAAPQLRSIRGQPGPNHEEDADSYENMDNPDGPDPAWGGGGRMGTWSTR

T11: cynomolgus monkey CD19 on cells (cynomolgus monkey, UniProt A0A2K5W8L9 20-557)
T11 sequence: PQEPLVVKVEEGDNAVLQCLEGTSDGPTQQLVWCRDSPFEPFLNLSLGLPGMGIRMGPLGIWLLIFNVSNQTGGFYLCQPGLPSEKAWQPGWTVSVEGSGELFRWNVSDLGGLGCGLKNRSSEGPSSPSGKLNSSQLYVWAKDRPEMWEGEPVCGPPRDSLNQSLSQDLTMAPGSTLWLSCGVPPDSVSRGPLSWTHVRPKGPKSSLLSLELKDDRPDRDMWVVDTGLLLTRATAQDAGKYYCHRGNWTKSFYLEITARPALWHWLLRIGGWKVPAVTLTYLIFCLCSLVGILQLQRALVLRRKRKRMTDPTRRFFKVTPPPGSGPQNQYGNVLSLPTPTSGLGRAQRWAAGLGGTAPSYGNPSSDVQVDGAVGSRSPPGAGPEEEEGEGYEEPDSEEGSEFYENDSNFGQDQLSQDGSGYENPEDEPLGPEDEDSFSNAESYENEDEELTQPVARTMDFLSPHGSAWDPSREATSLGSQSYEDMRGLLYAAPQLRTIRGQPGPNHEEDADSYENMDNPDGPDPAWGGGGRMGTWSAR


Legend:
[1] = molecular target: T12, cynomolgus monkey Fc gamma receptor CD16 (cynomolgus monkey, UniProt Q8SPW2 17-208)
[2] = molecular target: T13, recombinant human Fc gamma RI (CD64) (human, UniProt P12314 16-288)
[3] = molecular target: T1, recombinant human Fc gamma RIIa (CD32a) …
[4] = molecular target: T14, recombinant human Fc gamma RIIIa (CD16a) 158F (human, UniProt P08637 17-208)
[5] = molecular target: T15, recombinant human Fc gamma RIIIb (CD16b) (human, UniProt O75015 17-200)
[6] = molecular target: T2, recombinant human Fc gamma RIIa (CD32a) …
[7] = molecular target: T3, recombinant human Fc gamma RIIb/c …
[8] = molecular target: T16, recombinant human Fc gamma RIIIa (CD16a) 158V (human, UniProt P08637 17-208)
[9] = molecular target: T14, recombinant human Fc gamma RIIIa …; remark: listed apart in the source
[10] = molecular target: T15, recombinant human Fc gamma RIIIb (CD16b); remark: listed apart in the source
[11] = molecular target: T16, recombinant human Fc gamma RIIIa …; remark: listed apart in the source
[12] = molecular target: T4, recombinant human full-length CD20
[13] = molecular target: T5, recombinant cynomolgus monkey CD20
[14] = molecular target: T12, cynomolgus monkey Fc gamma receptor CD16; remark: listed apart in the source
CD20 Lipoparticles = molecular target: T6, CD20 Lipoparticles
[15] = molecular target: T13, recombinant human Fc gamma RI (CD64); remark: listed apart in the source
[16] = molecular target: T1, recombinant human Fc gamma RIIa (CD32a) …; remark: listed apart in the source
[17] = molecular target: T15, recombinant human Fc gamma RIIIb (CD16b); remark: listed apart in the source
[18] = molecular target: T2, recombinant human Fc gamma RIIa (CD32a) …; remark: listed apart in the source
[19] = molecular target: T3, recombinant human Fc gamma RIIb/c …; remark: listed apart in the source
[20] = molecular target: T16, recombinant human Fc gamma RIIIa …; remark: listed apart in the source
[21] = molecular target: T13, recombinant human Fc gamma RI (CD64); remark: listed apart in the source
[22] = molecular target: T2, recombinant human Fc gamma RIIa (CD32a) …; remark: listed apart in the source
[23] = molecular target: T3, recombinant human Fc gamma RIIb/c …; remark: listed apart in the source
[24] = molecular target: T7, cynomolgus monkey CD20 on cells
[25] = molecular target: T17, cynomolgus monkey Fc gamma receptor CD32a (cynomolgus monkey)
[26] = molecular target: T18, cynomolgus monkey Fc gamma receptor CD32b (cynomolgus monkey)
recombinant human CD19 = molecular target: T8, recombinant human CD19
[27] = molecular target: T9, recombinant cynomolgus monkey CD19
[28] = molecular target: T17, cynomolgus monkey Fc gamma receptor …; remark: listed apart in the source
[29] = molecular target: T18, cynomolgus monkey Fc gamma receptor …; remark: listed apart in the source
human CD19 on cells = molecular target: T10, human CD19 on cells
[30] = molecular target: T11, cynomolgus monkey CD19 on cells

T15 sequence (O75015 17-200 limits assumed): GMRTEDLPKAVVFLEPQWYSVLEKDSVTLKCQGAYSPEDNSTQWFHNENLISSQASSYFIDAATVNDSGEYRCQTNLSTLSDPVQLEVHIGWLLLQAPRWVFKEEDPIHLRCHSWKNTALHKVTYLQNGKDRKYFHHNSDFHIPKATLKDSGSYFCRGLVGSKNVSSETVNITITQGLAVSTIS
T16 sequence (P08637 17-208 F176V limits assumed): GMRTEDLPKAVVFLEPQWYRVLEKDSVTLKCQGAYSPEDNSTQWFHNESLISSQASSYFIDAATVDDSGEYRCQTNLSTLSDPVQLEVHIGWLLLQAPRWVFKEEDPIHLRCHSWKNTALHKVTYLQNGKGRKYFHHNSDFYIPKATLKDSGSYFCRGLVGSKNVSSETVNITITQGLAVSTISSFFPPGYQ
T12 sequence (Q8SPW2 17-208 limits assumed): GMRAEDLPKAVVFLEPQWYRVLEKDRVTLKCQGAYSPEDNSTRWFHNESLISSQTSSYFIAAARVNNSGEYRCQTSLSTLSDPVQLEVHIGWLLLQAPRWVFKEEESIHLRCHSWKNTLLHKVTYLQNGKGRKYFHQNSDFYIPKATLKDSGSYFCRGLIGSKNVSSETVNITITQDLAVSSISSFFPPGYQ
T13 sequence (P12314 16-288 limits assumed): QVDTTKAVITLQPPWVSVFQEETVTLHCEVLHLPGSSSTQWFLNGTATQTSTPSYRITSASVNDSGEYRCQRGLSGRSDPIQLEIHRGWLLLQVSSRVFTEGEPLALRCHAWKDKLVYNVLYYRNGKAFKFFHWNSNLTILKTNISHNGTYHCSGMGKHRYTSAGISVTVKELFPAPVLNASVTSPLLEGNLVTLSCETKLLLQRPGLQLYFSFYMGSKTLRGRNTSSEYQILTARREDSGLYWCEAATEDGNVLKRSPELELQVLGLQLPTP
T14 sequence (P08637 17-208 limits assumed): as the sequence (P08637 17-208 F176V limits assumed) above, with V160F counted along it

| Binder | Kd [1] [nM] | Kd [2] [nM] | Kd [3] [nM] | Kd [4] [nM] | Kd [5] [nM] | Kd [6] [nM] | Kd [7] [µM] | Kd [8] [nM] | Kd [9] [nM] | Kd [10] [nM] | Kd [11] [nM] | Kd [14] [nM] | Kd [21] [nM] | Kd [22] [nM] | Kd [23] [µM] | other results |
| --- | --- | --- | --- | --- | --- | --- | --- | --- | --- | --- | --- | --- | --- | --- | --- | --- |
| Rituximab (antibody) VH: not shown VL: QIVLSQSPAILSASPGEKVTMTCRASSSVSYIHWFQQKPGSSPKPWIYATSNLASGVPVRFSGSGSGTSYSLTISRVEAEDAATYYCQQWTSNPPTFGGGTKLEIKRTVAAPSVFIFPPSDEQLKSGTASVVCLLNNFYPREAKVQWKVDNALQSGNSQESVTEQDSKDSTYSLSSTLTLSKADYEKHKVYACEVTHQGLSSPVTKSFNRGEC | 425 | 11.3 | 1740 | 1530 | 4090 | 2330 | 6.68 | 595 | 1520 | 4320 | 309 | 130 | 0.0547 | 635 | 8.88 | Kd [12]: 0.46 nM; Kd [13]: 1.1 nM; Kd (CD20 Lipoparticles): < 1 pM; Kd [15]: 52.8 nM; Kd [16]: 892 nM; Kd [17]: 1530 nM; Kd [18]: 1250 nM; Kd [19]: 1520 nM; Kd [20]: 715 nM; EC50 [24]: 0.61 nM |
| Tafasitamab-cxix (research grade biosimilar) (antibody, human IgG1, kappa) heavy: EVQLVESGGGLVKPGGSLKLSCAASGYTFTSYVMHWVRQAPGKGLEWIGYINPYNDGTKYNEKFQGRVTISSDKSISTAYMELSSLRSEDTAMYYCARGTYYYGTRVFDYWGQGTLVTVSSASTKGPSVFPLAPSSKSTSGGTAALGCLVKDYFPEPVTVSWNSGALTSGVHTFPAVLQSSGLYSLSSVVTVPSSSLGTQTYICNVNHKPSNTKVDKKVEPKSCDKTHTCPPCPAPELLGGPDVFLFPPKPKDTLMISRTPEVTCVVVDVSHEDPEVQFNWYVDGVEVHNAKTKPREEQFNSTFRVVSVLTVVHQDWLNGKEYKCKVSNKALPAPEEKTISKTKGQPREPQVYTLPPSREEMTKNQVSLTCLVKGFYPSDIAVEWESNGQPENNYKTTPPMLDSDGSFFLYSKLTVDKSRWQQGNVFSCSVMHEALHNHYTQKSLSLSPG light: DIVMTQSPATLSLSPGERATLSCRSSKSLQNVNGNTYLYWFQQKPGQSPQLLIYRMSNLNSGVPDRFSGSGSGTEFTLTISSLEPEDFAVYYCMQHLEYPITFGAGTKLEIKRTVAAPSVFIFPPSDEQLKSGTASVVCLLNNFYPREAKVQWKVDNALQSGNSQESVTEQDSKDSTYSLSSTLTLSKADYEKHKVYACEVTHQGLSSPVTKSFNRGEC | 49.5 | 5.6 | 231 | 121 | 176 | 203 | 0.234 | 88.9 | 15.3 | 62.1 | 4.19 | 1.34 | < 0.02 | 39.1 | 0.0994 | Kd [25]: 181 nM; Kd [26]: 152 nM; Kd (recombinant human CD19): 1.4 nM; Kd [27]: 1800 nM; Kd [28]: 76.2 nM; Kd [29]: 53 nM; EC50 (human CD19 on cells): 1 nM; EC50 [30]: 57 nM |
